Measurements taken from the Human Domainome abundance scans (Beltran et al. 2025).
± gives the uncertainty stated by the source.

B1: Far upstream element-binding protein 1, residues 184 to 257; numbered along this chain, Q96AE4 (parent)
chain: GNAVQEIMIPASKAGLVIGKGGETIKQLQERAGVKMVMIQDGPQNTGADKPLRITGDPYKVQQAKEMVLELIRD

Variants of: B1
Test: abundance fitness (aPCA) (normalised: wild type 0, dead -1); higher = more abundant; growth selection in yeast, the domain comes from the species named
Conditions: Homo sapiens

Question: For GNAVQEIMIPASKAGLVIGKGGETIKQLQERAGVKMVMIQDGPQNTGAAKPLRITGDPYKVQQAKEMVLELIRD [D49A], which abundance fitness is on record?
Answer: Its abundance fitness is -0.029 ± 0.032.

Question: With GNAVQEIMIPASKAGLVIGKGGETIKQLQERAGVKMVMIQDGPQNTGAKKPLRITGDPYKVQQAKEMVLELIRD [D49K] as the variant, how does the abundance fitness read?
Answer: The abundance fitness was -0.087 ± 0.036.

Question: For GNAVQEIMIPASKAGLVIGKGGETIKQLQERAGVKMVMIQDGPQNTGAHKPLRITGDPYKVQQAKEMVLELIRD [D49H], which abundance fitness is on record?
Answer: The abundance fitness was -0.012 ± 0.048.

Question: For GNAVQEIMIPASKAGLVIGKGGETIKQLQERAGVKMVMIQDGPQNTGADKKLRITGDPYKVQQAKEMVLELIRD [P51K], which abundance fitness is on record?
Answer: Its abundance fitness is -0.03 ± 0.039.

Question: Which abundance fitness does the source give for GNAVQEIMIPASKAGLVIGKGGETIKQLQERAGVKMVMIQDGPQNTGADKHLRITGDPYKVQQAKEMVLELIRD [P51H] here?
Answer: Its abundance fitness is -0.026 ± 0.045.

Question: Which abundance fitness does the source give for GNAVQEIMIPASKAGLVIGKGGETIKQLQERAGVKMVMIQDGPQNTGADKQLRITGDPYKVQQAKEMVLELIRD [P51Q] here?
Answer: Its abundance fitness is -0.108 ± 0.041.

Question: With GNAVQEIMIPASKAGLVIGKGGETIKQLQERAGVKMVMIQDGPQNTGADKMLRITGDPYKVQQAKEMVLELIRD [P51M] as the variant, how does the abundance fitness read?
Answer: Its abundance fitness is 0.028 ± 0.041.

Question: Which abundance fitness does the source give for GNAVQEIMIPASKAGLVIGKGGETIKQLQERAGVKMVMIQDGPQNTGADKILRITGDPYKVQQAKEMVLELIRD [P51I] here?
Answer: Its abundance fitness is -0.086 ± 0.045.

Question: Which abundance fitness does the source give for GNAVQEIMIPASKAGLVIGKGGETIKQLQERAGVKMVMIQDGPQNTGADKWLRITGDPYKVQQAKEMVLELIRD [P51W] here?
Answer: The abundance fitness was -0.066 ± 0.037.

Question: For GNAVQEIMIPASKAGLVIGKGGETIKQLQERAGVKMVMIQDGPQNTGADKCLRITGDPYKVQQAKEMVLELIRD [P51C], which abundance fitness is on record?
Answer: Its abundance fitness is -0.005 ± 0.044.

Question: For GNAVQEIMIPASKAGLVIGKGGETIKQLQERAGVKMVMIQDGPQNTGADKRLRITGDPYKVQQAKEMVLELIRD [P51R], which abundance fitness is on record?
Answer: The abundance fitness was 0.007 ± 0.028.

Question: With GNAVQEIMIPASKAGLVIGKGGETIKQLQERAGVKMVMIQDGPQNTGADKNLRITGDPYKVQQAKEMVLELIRD [P51N] as the variant, how does the abundance fitness read?
Answer: Its abundance fitness is -0.049 ± 0.055.

Question: Which abundance fitness does the source give for GNAVQEIMIPASKAGLVIGKGGETIKQLQERAGVKMVMIQDGPQNTGADKELRITGDPYKVQQAKEMVLELIRD [P51E] here?
Answer: The abundance fitness was -0.014 ± 0.039.

Question: With GNAVQEIMIPASKAGLVIGKGGETIKQLQERAGVKMVMIQDGPQNTGADKALRITGDPYKVQQAKEMVLELIRD [P51A] as the variant, how does the abundance fitness read?
Answer: The abundance fitness was -0.011 ± 0.033.

Question: For GNAVQEIMIPASKAGLVIGKGGETIKQLQERAGVKMVMIQDGPQNTGADKLLRITGDPYKVQQAKEMVLELIRD [P51L], which abundance fitness is on record?
Answer: The abundance fitness was -0.057 ± 0.03.

Question: Which abundance fitness does the source give for GNAVQEIMIPASKAGLVIGKGGETIKQLQERAGVKMVMIQDGPQNTGADKTLRITGDPYKVQQAKEMVLELIRD [P51T] here?
Answer: The abundance fitness was -0.018 ± 0.035.

Question: For GNAVQEIMIPASKAGLVIGKGGETIKQLQERAGVKMVMIQDGPQNTGADKDLRITGDPYKVQQAKEMVLELIRD [P51D], which abundance fitness is on record?
Answer: Its abundance fitness is -0.358 ± 0.049.

Question: With GNAVQEIMIPASKAGLVIGKGGETIKQLQERAGVKMVMIQDGPQNTGADKFLRITGDPYKVQQAKEMVLELIRD [P51F] as the variant, how does the abundance fitness read?
Answer: Its abundance fitness is -0.077 ± 0.042.

Question: For GNAVQEIMIPASKAGLVIGKGGETIKQLQERAGVKMVMIQDGPQNTGADKYLRITGDPYKVQQAKEMVLELIRD [P51Y], which abundance fitness is on record?
Answer: Its abundance fitness is -0.059 ± 0.048.

Question: For GNAVQEIMIPASKAGLVIGKGGETIKQLQERAGVKMVMIQDGPQNTGADKPDRITGDPYKVQQAKEMVLELIRD [L52D], which abundance fitness is on record?
Answer: Its abundance fitness is -0.702 ± 0.07.

Question: With GNAVQEIMIPASKAGLVIGKGGETIKQLQERAGVKMVMIQDGPQNTGADKPCRITGDPYKVQQAKEMVLELIRD [L52C] as the variant, how does the abundance fitness read?
Answer: The abundance fitness was -0.229 ± 0.047.

Question: With GNAVQEIMIPASKAGLVIGKGGETIKQLQERAGVKMVMIQDGPQNTGADKPARITGDPYKVQQAKEMVLELIRD [L52A] as the variant, how does the abundance fitness read?
Answer: Its abundance fitness is -0.807 ± 0.041.

Question: Which abundance fitness does the source give for GNAVQEIMIPASKAGLVIGKGGETIKQLQERAGVKMVMIQDGPQNTGCDKPLRITGDPYKVQQAKEMVLELIRD [A48C] here?
Answer: The abundance fitness was 0.053 ± 0.046.

Question: Which abundance fitness does the source give for GNAVQEIMIPASKAGLVIGKGGETIKQLQERAGVKMVMIQDGPQNTGFDKPLRITGDPYKVQQAKEMVLELIRD [A48F] here?
Answer: The abundance fitness was -0.01 ± 0.051.

Question: With GNAVQEIMIPASKAGLVIGKGGETIKQLQERAGVKMVMIQDGPQNTGSDKPLRITGDPYKVQQAKEMVLELIRD [A48S] as the variant, how does the abundance fitness read?
Answer: Its abundance fitness is -0.035 ± 0.031.

Question: For GNAVQEIMIPASKAGLVIGKGGETIKQLQERAGVKMVMIQDGPQNTGNDKPLRITGDPYKVQQAKEMVLELIRD [A48N], which abundance fitness is on record?
Answer: The abundance fitness was -0.086 ± 0.054.

Question: For GNAVQEIMIPASKAGLVIGKGGETIKQLQERAGVKMVMIQDGPQNTGMDKPLRITGDPYKVQQAKEMVLELIRD [A48M], which abundance fitness is on record?
Answer: Its abundance fitness is 0.02 ± 0.041.

Question: With GNAVQEIMIPASKAGLVIGKGGETIKQLQERAGVKMVMIQDGPQNTGKDKPLRITGDPYKVQQAKEMVLELIRD [A48K] as the variant, how does the abundance fitness read?
Answer: The abundance fitness was 0.003 ± 0.038.

Question: For GNAVQEIMIPASKAGLVIGKGGETIKQLQERAGVKMVMIQDGPQNTGEDKPLRITGDPYKVQQAKEMVLELIRD [A48E], which abundance fitness is on record?
Answer: The abundance fitness was 0.021 ± 0.034.

Question: Which abundance fitness does the source give for GNAVQEIMIPASKAGLVIGKGGETIKQLQERAGVKMVMIQDGPQNTGWDKPLRITGDPYKVQQAKEMVLELIRD [A48W] here?
Answer: Its abundance fitness is -0.124 ± 0.034.

Question: For GNAVQEIMIPASKAGLVIGKGGETIKQLQERAGVKMVMIQDGPQNTGRDKPLRITGDPYKVQQAKEMVLELIRD [A48R], which abundance fitness is on record?
Answer: The abundance fitness was -0.018 ± 0.027.

Question: With GNAVQEIMIPASKAGLVIGKGGETIKQLQERAGVKMVMIQDGPQNTGGDKPLRITGDPYKVQQAKEMVLELIRD [A48G] as the variant, how does the abundance fitness read?
Answer: The abundance fitness was 0.002 ± 0.027.

Question: Which abundance fitness does the source give for GNAVQEIMIPASKAGLVIGKGGETIKQLQERAGVKMVMIQDGPQNTGVDKPLRITGDPYKVQQAKEMVLELIRD [A48V] here?
Answer: Its abundance fitness is -0.015 ± 0.032.

Question: With GNAVQEIMIPASKAGLVIGKGGETIKQLQERAGVKMVMIQDGPQNTGPDKPLRITGDPYKVQQAKEMVLELIRD [A48P] as the variant, how does the abundance fitness read?
Answer: The abundance fitness was -0.042 ± 0.037.

Question: With GNAVQEIMIPASKAGLVIGKGGETIKQLQERAGVKMVMIQDGPQNTGTDKPLRITGDPYKVQQAKEMVLELIRD [A48T] as the variant, how does the abundance fitness read?
Answer: Its abundance fitness is 0.013 ± 0.038.

Question: With GNAVQEIMIPASKAGLVIGKGGETIKQLQERAGVKMVMIQDGPQNTGDDKPLRITGDPYKVQQAKEMVLELIRD [A48D] as the variant, how does the abundance fitness read?
Answer: Its abundance fitness is 0.077 ± 0.045.

Question: With GNAVQEIMIPASKAGLVIGKGGETIKQLQERAGVKMVMIQDGPQNTGIDKPLRITGDPYKVQQAKEMVLELIRD [A48I] as the variant, how does the abundance fitness read?
Answer: The abundance fitness was 0.005 ± 0.057.
